The values that follow come from patent publication US20250295792A1, “POLYETHYLENE GLYCOL-MODIFIED FORM OF KININ OR DERIVATIVE THEREOF AND PHARMACEUTICAL USE THEREOF” (ZonHon Biopharma Institute, Inc., priority 2022, published 2025).

Where no end group is shown, it is not given here. [ ]: non-standard residue; d: D form. 2Thi = N[C@@H](Cc1cccs1)C(=O)O

In the experiment the target is B2 receptor. The experiment is described as follows: cell-based or functional assay.
Chain of B2 receptor (P30411 whole entry): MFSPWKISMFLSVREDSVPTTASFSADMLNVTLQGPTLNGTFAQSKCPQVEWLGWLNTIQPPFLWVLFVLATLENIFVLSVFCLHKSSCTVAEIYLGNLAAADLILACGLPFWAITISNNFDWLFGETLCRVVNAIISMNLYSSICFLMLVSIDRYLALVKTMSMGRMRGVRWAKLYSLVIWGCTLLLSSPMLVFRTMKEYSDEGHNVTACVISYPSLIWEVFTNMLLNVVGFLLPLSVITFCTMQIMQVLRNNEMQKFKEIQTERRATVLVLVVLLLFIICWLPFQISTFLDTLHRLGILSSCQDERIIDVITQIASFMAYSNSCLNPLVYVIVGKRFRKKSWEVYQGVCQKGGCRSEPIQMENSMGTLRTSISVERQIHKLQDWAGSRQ
With CRPPG[2Thi]SPFR [Lys-BKm15], the Relative affinity activity (B2-NFAT-CHO-K1 luciferase reporter gene assay, from EC50) was found to be 125%.

On to CRRRPPG[2Thi]SPFR [Lys-BKm16], for which the Relative affinity activity (B2-NFAT-CHO-K1 luciferase reporter gene assay, from EC50) came to 120%.

On to RPPG[2Thi]SPFR [Lys-BKm02], for which the Relative affinity activity (B2-NFAT-CHO-K1 luciferase reporter gene assay, from EC50) amounted to 100%.

[2Thi]SPFR [Lys-BKm09]: the Relative affinity activity (B2-NFAT-CHO-K1 luciferase reporter gene assay, from EC50) stood at 0%.

In the case of KRPPGXSPF ({THI} (β-2-thiophenylalanine) at position 6: KRPPG{THI}SPF) [Lys-BKm05], the Relative affinity activity (B2-NFAT-CHO-K1 luciferase reporter gene assay, from EC50) was under 10%.

With PG[2Thi]SPFR [Lys-BKm08], the Relative affinity activity (B2-NFAT-CHO-K1 luciferase reporter gene assay, from EC50) is under 10%.

Take CRRPPG[2Thi]SPFR [Lys-BKm13]: the Relative affinity activity (B2-NFAT-CHO-K1 luciferase reporter gene assay, from EC50) was found to be 115%.

In the case of SPFR [Lys-BKm10], the Relative affinity activity (B2-NFAT-CHO-K1 luciferase reporter gene assay, from EC50) stood at 0%.
